According to patent US20110263014A1, “Cleavage of Nanog by Caspases Mediates the Differentiation of Embryonic Stem Cells” (BAYLOR COLLEGE OF MEDICINE, priority 2008, published 2011):
“Also recorded” adds a separate entry of the source.

Tests used:
R1 ES cells = test: Apoptosis rate (counting apoptotic bodies); format: cell-based, mouse; settings: over 72 hours post-stimulation with RA
Method: R1 ES cells (1×10^5) were plated into 6-cm dishes on irradiated MEFs and stimulated with RA differentiation medium for up to 72 hours. Cells were fixed with 4% paraformaldehyde (EMS, cat. no. 15710), stained with DAPI and mounted with Vectashield (Vector Lab, cat. no. H1200). The number of apoptotic figures was determined in triplicate per 100 cells. As a positive control, ES cells were incubated with staurosporine (Sigma, cat. no. 55921, 1 μM) for 4 hours.

caspase-3 = target: T1, caspase-3 (Homo sapiens, UniProt P42574); test: caspase-3 activity assay (CaspGlo) with Nanog cleavage site peptides; format: biochemical; settings: FIG. 10B
T1 construct: purchased BD Bioscience 556471
T1 sequence (P42574 29-175 limits assumed): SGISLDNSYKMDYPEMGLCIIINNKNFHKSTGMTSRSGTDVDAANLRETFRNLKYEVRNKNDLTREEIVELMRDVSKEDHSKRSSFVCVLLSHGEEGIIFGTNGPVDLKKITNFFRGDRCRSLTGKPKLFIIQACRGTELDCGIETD
T1 sequence (P42574 176-277 limits assumed): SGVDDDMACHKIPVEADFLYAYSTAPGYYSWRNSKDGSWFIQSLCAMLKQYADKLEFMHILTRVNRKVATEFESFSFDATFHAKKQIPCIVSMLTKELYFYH
Method: Trypsinized ES cells (R1; 200,000; D3 250,000) were plated into 6 wells containing normal ES cell medium, and on the next day the medium was changed to 1 μM RA differentiation medium. Cells were harvested with trypsin-EDTA (Invitrogen, cat. no. 25300-054), and protein extracts were made in 0.1% CHAPS buffer, pH 7.2 (50 mM Hepes; 150 mM KCl; 1× protease inhibitors (Roche, cat. no. 1697498001); 2 mM Na fluoride and orthovanadate, respectively, at specified time points. The CaspGlo (Promega, cat. no. G8091) kit was used to directly measure caspase activity. Before determining caspase activity, we tested the system for variability within the dynamic range, using recombinant caspase-3 (BD Bioscience, cat. no. 556471). The signal was measured with the Wallac 1429 Victorll instrument (Perkin-Elmer, Wellesley, Mass.).

Row | Compound | percentage of cells undergoing apoptosis (R1 ES cells) | inhibition / targeting of caspase-3 by cleavage site peptide (caspase-3)
1 | CC1=C(/C=C/C(C)=C/C=C/C(C)=C/C(=O)O)C(C)(C)CCC1 [RA, retinoic acid] | essentially no increases | –
2 | DSPD: hNanog caspase cleavage site peptide | – | effectively inhibit caspase-3
3 | GSPD: mNanog caspase cleavage site peptide | – | effectively inhibit caspase-3; also recorded: still targeted by caspase-3
